Experimental data from publication PMC5695864.

How the values were obtained:
[1] = target: core-fucosylated RNase B (21) (bovine) (UniProt P61823); experiment: ELISA
[2] = target: S2G2F-rituximab (30), core-fucosylated sialyl complex type glycoform of rituximab (human); experiment: ELISA

Chain of UniProt P61823 (P61823 27-150): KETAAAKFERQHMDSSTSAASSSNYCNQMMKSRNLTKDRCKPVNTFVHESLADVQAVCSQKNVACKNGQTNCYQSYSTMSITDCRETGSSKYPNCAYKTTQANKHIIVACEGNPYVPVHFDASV

| EC50 [1] [µM] | EC50 [2] [µM] | Molecule |
| --- | --- | --- |
| 275 |  | Aleuria aurantia lectin (AAL) (from UniProt P18891 1-313) (natural protein) |
|  | 15 | Aleuria aurantia lectin (AAL) (natural protein, biotin (AAL-biotin)) MPTEFLYTSKIAAISWAATGGRQQRVYFQDLNGKIREAQRGGDNPWTGGSSQNVIGEAKLFSPLAAVTWKSAQGIQIRVYCVNKDNILSEFVYDGSKWITGQLGSVGVKVGSNSKLAALQWGGSESAPPNIRVYYQKSNGSGSSIHEYVWSGKWTAGASFGSTVPGTGIGATAIGPGRLRIYYQATDNKIREHCWDSNSWYVGGFSASASAGVSIAAISWGSTPNIRVYWQKGREELYEAAYGGSWNTPGQIKDASRPTPSLPDTFIAANSSGNIDISVFFQASGVSLQQWQWISGKGWSIGAVVPTGTPAGW |
